Results: US20120121596A1 (published 2012)
Substitutions are numbered along the chain they refer to.

Columns and labels:
[1] = biological target: T1, monomeric human EGFR-ecd (Example 9) (human, UniProt P00533 25-637); assay: SPR BIAcore 2000, DL11f human IgG1 immobilized on CM5, monomeric ecd analyte 0.244-250 nM, 25 C
T1 construct: range 1-637

[2] = biological target: T2, monomeric human HER3-ecd (Example 9) (human, UniProt P21860 20-643); assay: as above
T2 construct: extracellular domain

[3] = biological target: T2, monomeric human HER3-ecd (Example 9); assay: SPR, both experiments; reference: affinity for EGFR
[4] = biological target: HER3 on cells (MCF7 cells; MDA-175 cells) (UniProt P21860 20-1342, limits assumed); assay: cell-based or functional assay
[5] = biological target: T3, human HER3-Fc (Example 9) (human, UniProt P21860 20-640); assay: SPR, both experiments; reference: affinity for EGFR
T3 construct: range 1-640; Produced in CHO cells, protein A purified; also called human HER3-IgG1; not shown: Fc region of human IgG1

[6] = biological target: T3, human HER3-Fc (Example 9); assay: SPR BIAcore 2000, Fc fusion captured on CM5 with human Antibody Capture Kit, Fab analyte 0.244-250 nM, 25 C, 1:1 Langmuir
[7] = biological target: T4, human EGFR-Fc (Example 9) (human, UniProt P00533 25-637); assay: as above
T4 construct: range 1-637; Produced in CHO cells, protein A purified; also called Recombinant human EGFR-IgG1; not shown: Fc region of human IgG1

[8] = biological target: T5, hEGFR-ECD-Fc (human EGFR extracellular domain fused to an Fc region of human IgG1) (human, UniProt P00533 25-645); assay: direct phage ELISA, proteins coated at 2 µg/ml, phage-Fab supernatant, OD450;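 further: specificity test of dual-activity clones, with binding assessed across an antigen panel to check whether each recognises only its cognate target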
T5 construct: extracellular domain; not shown: Fc region of human IgG1

HER3-ECD-Fc [9] = biological target: T6, HER3-ECD-Fc (human, UniProt P21860 20-643, limits assumed); assay: as above
T6 construct: extracellular domain; also called HER3-FC; HER3-IgG

HER2-ECD [10] = biological target: T7, HER2-ECD (human, UniProt P04626 23-652); assay: as above
T7 construct: extracellular domain

BSA [11] = biological target: T8, BSA (bovine, UniProt P02769); assay: as above
T8 construct: also called bovine serum albumin
T8 sequence (P02769 25-607 limits assumed): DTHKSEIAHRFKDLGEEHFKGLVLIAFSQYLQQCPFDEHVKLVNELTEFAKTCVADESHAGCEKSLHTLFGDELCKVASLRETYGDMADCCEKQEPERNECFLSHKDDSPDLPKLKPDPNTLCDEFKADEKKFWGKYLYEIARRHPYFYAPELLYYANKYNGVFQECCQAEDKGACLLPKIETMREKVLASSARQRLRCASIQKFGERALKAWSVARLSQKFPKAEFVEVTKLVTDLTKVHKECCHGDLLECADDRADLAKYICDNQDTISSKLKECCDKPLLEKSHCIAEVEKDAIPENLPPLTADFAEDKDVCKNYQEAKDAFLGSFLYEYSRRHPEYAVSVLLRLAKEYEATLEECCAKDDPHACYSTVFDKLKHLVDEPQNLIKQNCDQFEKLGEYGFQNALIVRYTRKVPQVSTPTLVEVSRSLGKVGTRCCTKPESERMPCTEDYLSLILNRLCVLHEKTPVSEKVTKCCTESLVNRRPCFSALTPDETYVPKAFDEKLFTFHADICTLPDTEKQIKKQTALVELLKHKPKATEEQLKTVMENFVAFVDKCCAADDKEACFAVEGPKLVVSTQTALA

Xolair [12] = biological target: T9, Xolair; assay: as above
T9 construct: not shown: the constant regions

HER4-ECD-Fc [13] = biological target: T10, HER4-ECD-Fc (human, UniProt Q15303 26-651, limits assumed); assay: as above
T10 construct: extracellular domain
T10 sequence (looked up): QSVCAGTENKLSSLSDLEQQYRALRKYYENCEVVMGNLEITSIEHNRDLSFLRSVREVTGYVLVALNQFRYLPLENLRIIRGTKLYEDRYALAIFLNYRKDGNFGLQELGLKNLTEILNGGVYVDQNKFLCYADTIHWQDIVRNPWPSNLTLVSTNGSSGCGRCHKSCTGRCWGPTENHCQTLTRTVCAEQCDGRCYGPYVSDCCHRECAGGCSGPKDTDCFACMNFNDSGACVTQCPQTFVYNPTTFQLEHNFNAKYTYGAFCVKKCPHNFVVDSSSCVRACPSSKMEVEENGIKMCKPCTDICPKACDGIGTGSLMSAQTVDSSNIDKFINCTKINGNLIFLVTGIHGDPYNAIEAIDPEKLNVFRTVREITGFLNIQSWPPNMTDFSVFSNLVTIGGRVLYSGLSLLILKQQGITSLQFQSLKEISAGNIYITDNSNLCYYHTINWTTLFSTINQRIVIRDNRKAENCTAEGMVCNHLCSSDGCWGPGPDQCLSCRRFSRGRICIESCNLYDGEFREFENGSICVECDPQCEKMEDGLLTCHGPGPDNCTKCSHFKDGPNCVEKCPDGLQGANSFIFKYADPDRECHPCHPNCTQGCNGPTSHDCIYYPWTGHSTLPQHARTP

hEGFR-ECD [14] = biological target: T11, hEGFR-ECD (human, UniProt P00533 25-645); assay: SPR, BIAcore-2000, mIgG D1.5 immobilized on CM5 (~150 RU), EGFR-ECD 12.5-200 nM as analyte, 25 C, 1:1 Langmuir model
T11 construct: extracellular domain

mEGFR-ECD-Fc = biological target: T12, mEGFR-ECD-Fc (murine, UniProt Q01279 25-647); assay: competitive ELISA: serial dilutions of mEGFR-ECD-Fc with fixed D1.5 on hEGFR-ECD-Fc coated plate
T12 construct: extracellular domain; also called murine EGFR; not shown: Fc

hEGFR-ECD [15] = biological target: T11, hEGFR-ECD; assay: phage solution binding competition ELISA as in Example 1, antigen in solution varied
HER3-ECD-Fc [16] = biological target: T6, HER3-ECD-Fc; assay: as above
mHER3-Fc = biological target: T13, mHER3-Fc; assay: direct phage ELISA on coated proteins as in Example 5, OD450
T13 chain: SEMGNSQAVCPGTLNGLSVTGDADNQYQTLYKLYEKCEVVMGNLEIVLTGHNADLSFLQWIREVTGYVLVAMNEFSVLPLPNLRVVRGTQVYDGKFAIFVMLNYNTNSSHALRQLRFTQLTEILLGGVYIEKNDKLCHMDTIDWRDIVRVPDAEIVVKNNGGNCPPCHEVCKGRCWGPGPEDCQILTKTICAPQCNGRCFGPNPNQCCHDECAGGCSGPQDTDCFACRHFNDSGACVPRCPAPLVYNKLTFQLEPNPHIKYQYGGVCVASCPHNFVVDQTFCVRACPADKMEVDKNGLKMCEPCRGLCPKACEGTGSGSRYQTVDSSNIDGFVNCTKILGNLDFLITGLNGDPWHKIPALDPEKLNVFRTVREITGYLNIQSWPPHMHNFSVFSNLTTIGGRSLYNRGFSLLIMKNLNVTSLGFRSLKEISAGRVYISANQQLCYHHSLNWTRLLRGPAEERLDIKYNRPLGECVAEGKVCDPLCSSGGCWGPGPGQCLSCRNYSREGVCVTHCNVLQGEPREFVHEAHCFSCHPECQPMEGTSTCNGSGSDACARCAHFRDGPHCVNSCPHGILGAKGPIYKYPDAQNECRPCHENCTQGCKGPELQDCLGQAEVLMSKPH

BSA [17] = biological target: T8, BSA; assay: as above
Xolair [18] = biological target: T9, Xolair; assay: as above
TGF-α = biological target: T14, TGF-α; assay: as above
T14 construct: also called transforming growth factor alpha

HER4-ECD-Fc [19] = biological target: T10, HER4-ECD-Fc; assay: as above
[20] = biological target: T5, hEGFR-ECD-Fc (human EGFR extracellular …); assay: phage ELISA of clones from plate selection
hEGFR-ECD [21] = biological target: T11, hEGFR-ECD; assay: direct phage ELISA, proteins coated at 2 µg/ml, phage-Fab supernatant, OD450;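 further: specificity test of dual-activity clones, with binding assessed across an antigen panel to check whether each recognises only its cognate target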
Erbitux = biological target: T15, Erbitux; assay: as above
T15 construct: also called cetuximab; C225; not shown: the constant regions

hEGFR-ECD [22] = biological target: T11, hEGFR-ECD; assay: phage solution binding competition ELISA: hEGFR-ECD in solution varied, unbound phage captured on antigen-coated plate
HER2-ECD [23] = biological target: T7, HER2-ECD; assay: direct phage ELISA on coated proteins as in Example 5, OD450

B1: DL11f (human IgG1) (bispecific antibody, V domains shown)
VH: EVQLVESGGGLVQPGGSLRLSCAASGFTLSGDWIHWVRQAPGKGLEWVGEISAAGGYTDYADSVKGRFTISADTSKNTAYLQMNSLRAEDTAVYYCARESRVSFEAAMDYWGQGTLVTVSS
VL: DIQMTQSPSSLSASVGDRVTITCRASQNIATDVAWYQQKPGKAPKLLIYSASFLYSGVPSRFSGSGSGTDFTLTISSLQPEDFATYYCQQSEPEPYTFGQGTKVEIKR
B1 was tested, and the Kd [1] was 19.9 nM, the Kd [2] was 2.63 nM and the “fold higher affinity for HER3 than for EGFR” value [3] was 5 to 8 fold. The “IC50 of inhibition of MDA-175 cell proliferation” value [4] was 0.8 to 1 µg/mL.

B2: DL11f Fab (Fab, V domains shown)
VH: B1 VH
VL: B1 VL
In the case of B2, the “fold higher affinity for HER3 than for EGFR” value [5] is reported as 5 to 8 fold, the Kd [6] is reported as 0.39 nM and the Kd [7] is reported as 1.92 nM.

B3: D1.5-400 (phage-displayed Fab clone) (Fab, V domains shown)
VH: B1 VH with L29F, S30T, D32N, A53P, A54S, F104Y
VL: DIQMTQSPSSLSASVGDRVTITCRASQDVLFYGNVAWYQQKPGKAPKLLIYDGSYLYSGVPSRFSGSGSGTDFTLTISSLQPEDFATYYCQQSYPAPYTFGQGTKVEIKR
notes: EGFR/HER4 clone
B3: binds [8]; no binding (HER3-ECD-Fc [9]); no binding (HER2-ECD [10]). B3: no binding (BSA [11]); no binding (Xolair [12]); binds (HER4-ECD-Fc [13]).

B4: D1.5 (mIgG2A) (antibody, V domains shown)
VH: B1 VH with L29F, S30T, D32N, A53P, A54S, F104Y
VL: B1 VL with N28D, I29V, A30S, D32A, E92Y, E94T
notes: also called mIgG D1.5; anti-EGFR mIgG2A
In the case of B4, the Kd (hEGFR-ECD [14]) is reported as 1.2 nM and the binding result (mEGFR-ECD-Fc) is reported as “binds”.

B5: DL11 (phage-displayed Fab clone) (Fab, V domains shown)
VH: B1 VH with V48L
VL: B1 VL with N28D, I29L
notes: single Fab on phage
With B5 the IC50 (hEGFR-ECD [15]) was 5.7 nM, the IC50 (HER3-ECD-Fc [16]) was 0.43 nM and the binding result (mHER3-Fc) was “no binding”. B5: no binding (BSA [17]); no binding (Xolair [18]); no binding (TGF-α). B5: no binding (HER4-ECD-Fc [19]).

B6: D1.5-201 (phage-displayed Fab clone) (Fab, V domains shown)
VH: B1 VH with L29F, S30T, D32N, A53P, A54S, F104Y
VL: DIQMTQSPSSLSASVGDRVTITCRASQAVWGGYIAPVAWYQQKPGKAPKLLIYDGSYLYSGVPSRFSGSGSGTDFTLTISSLQPEDFATYYCQQRLPTPYTFGQGTKVEIKR
notes: EGFR/HER2 dual-specific clone from the D1.5 light chain library
B6: binds [20]; binds (hEGFR-ECD [21]); no binding (HER3-ECD-Fc [9]). B6: binds (HER2-ECD [10]); no binding (Erbitux); no binding (BSA [11]). B6: no binding (HER4-ECD-Fc [13]).

B7: D1.5 (phage-displayed Fab clone) (Fab, V domains shown)
VH: B1 VH with L29F, S30T, D32N, A53P, A54S, F104Y
VL: B1 VL with N28D, I29V, A30S, D32A, E92Y, E94T
B7: no binding (HER3-ECD-Fc [9]); no binding (HER2-ECD [10]); no binding (BSA [11]). For the same binder, the binding result (Xolair [12]) was “no binding”, the binding result (HER4-ECD-Fc [13]) was “no binding” and the IC50 (hEGFR-ECD [22]) was 0.39 nM.

B8: DL7 (phage-displayed Fab clone) (Fab, V domains shown)
VH: B1 VH with S100A, F104Y
VL: B1 VL with N28D, I29L
For B8, the IC50 (hEGFR-ECD [15]) was 6.1 nM, the IC50 (HER3-ECD-Fc [16]) was 0.25 nM and the binding result (mHER3-Fc) was “no binding”. B8: no binding (HER2-ECD [23]); no binding (BSA [17]); no binding (Xolair [18]). B8: no binding (TGF-α); no binding (HER4-ECD-Fc [19]).
